Experimental data as given in US20240261333A1, “NOVEL TARGETS FOR ENHANCING ANTI-TUMOR IMMUNITY” (THE BROAD INSTITUTE, INC., priority 2021, published 2024).
Blank lines part the entries; values can stand above or below the molecule they belong to.

Target: T1, B3GNT2 (Homo sapiens, UniProt Q9NY97)
T1 construct: The respective ORFs of candidate genes [CD274 (NM_014143), MCL1 (NM_021960), JUNB (NM_002229), and B3GNT2 (NM_006577)] were synthesized; expressed in transfected cells; host or cells: A375 melanoma cells (lentiviral ORF overexpression)
T1 sequence (Q9NY97 1-397): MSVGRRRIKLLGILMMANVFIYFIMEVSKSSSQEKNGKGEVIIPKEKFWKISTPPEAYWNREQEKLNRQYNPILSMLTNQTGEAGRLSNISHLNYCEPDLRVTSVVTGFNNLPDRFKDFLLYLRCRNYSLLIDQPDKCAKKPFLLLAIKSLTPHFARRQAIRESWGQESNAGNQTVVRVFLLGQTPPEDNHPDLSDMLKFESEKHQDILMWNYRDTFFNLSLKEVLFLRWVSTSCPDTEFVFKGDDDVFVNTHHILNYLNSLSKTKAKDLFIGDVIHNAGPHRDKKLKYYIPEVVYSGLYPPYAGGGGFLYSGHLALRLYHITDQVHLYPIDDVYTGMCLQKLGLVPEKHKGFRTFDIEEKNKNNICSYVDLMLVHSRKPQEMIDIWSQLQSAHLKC
Experiment: Co-IP of FLAG-tagged B3GNT2 followed by mass spectrometry
Format: cell-based
Design: C-term IgG / C-term flag: unit not given here
Conditions: mass spectrometry count, unit not given; for C-term flag / N-term FLAG: Co-IP with FLAG antibody; for C-term flag / C-term IgG: C-terminally FLAG-tagged B3GNT2; for N-term FLAG / N-term IgG: N-terminally FLAG-tagged B3GNT2; for C-term IgG / N-term IgG: Co-IP with IgG control antibody
In short: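 FLAG-tagged B3GNT2 immunoprecipitated from cell lysate (HEPES, 1% Triton X-100, 150 mM NaCl) with anti-FLAG versus […], overnight at 4° C, then captured on Protein A/G magnetic beads for 4 h. Two biological replicates per condition. Peptides fractionated and analyzed by nano-LC on an Orbitrap Elite in data-dependent mode.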

- C-term flag: 0
- N-term FLAG: 2
- C-term IgG: 0
- N-term IgG: 0
B2: MARS (protein)
chain: MRLFVSDGVPGCLPVLAAAGRARGRAEVLISTVGPEDCVVPFLTRPKVPVLQLDSGNYLFSTSAICRYFFLLSGWEQDDLTNQWLEWEATELQPALSAALYYLVVQGKKGEDVLGSVRRALTHIDHSLSRQNCPFLAGETESLADIVLWGALYPLLQDPAYLPEELSALHSWFQTLSTQEPCQRAAETVLKQQGVLALRPYLQKQPQPSPAEGRAVTNEPEEEELATLSEEEIAMAVTAWEKGLESLPPLRPQQNPVLPVAGERNVLITSALPYVNNVPHLGNIIGCVLSADVFARYSRLRQWNTLYLCGTDEYGTATETKALEEGLTPQEICDKYHIIHADIYRWFNISFDIFGRTTTPQQTKITQDIFQQLLKRGFVLQDTVEQLRCEHCARFLADRFVEGVCPFCGYEEARGDQCDKCGKLINAVELKKPQCKVCRSCPVVQSSQHLFLDLPKLEKRLEEWLGRTLPGSDWTPNAQFITRSWLRDGLKPRCITRDLKWGTPVPLEGFEDKVFYVWFDATIGYLSITANYTDQWERWWKNPEQVDLYQFMAKDNVPFHSLVFPCSALGAEDNYTLVSHLIATEYLNYEDGKFSKSRGVGVFGDMAQDTGIPADIWRFYLLYIRPEGQDSAFSWTDLLLKNNSELLNNLGNFINRAGMFVSKFFGGYVPEMVLTPDDQRLLAHVTLELQHYHQLLEKVRIRDALRSILTISRHGNQYIQVNEPWKRIKGSEADRQRAGTVTGLAVNIAALLSVMLQPYMPTVSATIQAQLQLPPPACSILLTNFLCTLPAGHQIGTVSPLFQKLENDQIESLRQRFGGGQAKTSPKPAVVETVTTAKPQQIQALMDEVTKQGNIVRELKAQKADKNEVAAEVAKLLDLKKQLAVAEGKPPEAPKGKKKK

- C-term flag: 2
- N-term FLAG: 0
- C-term IgG: 0
- N-term IgG: 0
B4: RRP12 (protein)
chain: MGRSGKLPSGVSAKLKRWKKGHSSDSNPAICRHRQAARSRFFSRPSGRSDLTVDAVKLHNELQSGSLRLGKSEAPETPMEEEAELVLTEKSSGTFLSGLSDCTNVTFSKVQRFWESNSAAHKEICAVLAAVTEVIRSQGGKETETEYFAALVLSCLATLLRKQDLEAWGYPVTLQVYHGLLSFTVHPKPKIRKAAQHGVCSVLKGSEFMFEKAPAHHPAAISTAKFCIQEIEKSGGSKEATTTLHMLTLLKDLLPCFPEGLVKSCSETLLRVMTLSHVLVTACAMQAFHSLFHARPGLSTLSAELNAQIITALYDYVPSENDLQPLLAWLKVMEKAHINLVRLQWDLGLGHLPRFFGTAVTCLLSPHSQVLTAATQSLKEILKECVAPHMADIGSVTSSASGPAQSVAKMFRAVEEGLTYKFHAAWSSVLQLLCVFFEACGRQAHPVMRKCLQSLCDLRLSPHFPHTAALDQAVGAAVTSMGPEVVLQAVPLEIDGSEETLDFPRSWLLPVIRDHVQETRLGFFTTYFLPLANTLKSKAMDLAQAGSTVESKIYDTLQWQMWTLLPGFCTRPTDVAISFKGLARTLGMAISERPDLRVTVCQALRTLITKGCQAEADRAEVSRFAKNFLPILFNLYGQPVAAGDTPAPRRAVLETIRTYLTITDTQLVNSLLEKASEKVLDPASSDFTRLSVLDLVVALAPCADEAAISKLYSTIRPYLESKAHGVQKKAYRVLEEVCASPQGPGALFVQSHLEDLKKTLLDSLRSTSSPAKRPRLKCLLHIVRKLSAEHKEFITALIPEVILCTKEVSVGARKNAFALLVEMGHAFLRFGSNQEEALQCYLVLIYPGLVGAVTMVSCSILALTHLLFEFKGLMGTSTVEQLLENVCLLLASRTRDVVKSALGFIKVAVTVMDVAHLAKHVQLVMEAIGKLSDDMRRHFRMKLRNLFTKFIRKFGFELVKRLLPEEYHRVLVNIRKAEARAKRHRALSQAAVEEEEEEEEEEEPAQGKGDSIEEILADSEDEEDNEEEERSRGKEQRKLARQRSRAWLKEGGGDEPLNFLDPKVAQRVLATQPGPGRGRKKDHGFKVSADGRLIIREEADGNKMEEEEGAKGEDEEMADPMEDVIIRNKKHQKLKHQKEAEEEELEIPPQYQAGGSGIHRPVAKKAMPGAEYKAKKAKGDVKKKGRPDPYAYIPLNRSKLNRRKKMKLQGQFKGLVKAARRGSQVGHKNRRKDRRP

- C-term flag: 2
- N-term FLAG: 0
- C-term IgG: 0
- N-term IgG: 0
B5: PJA2 (protein)
chain: SQYTEKEPAAMDQESGKAVWPKPAGGYQTITGRRYGRRHAYVSFKPCMTRHERSLGRAGDDYEVLELDDVPKENSSGSSPLDQVDSSLPSEPIFEKSETEIPTCGSALNQTTESSQSFVAVHHSEEGRDTLGSSTNLHNHSEGEYIPGACSASSVQNGIALVHTDSYDPDGKHGEDNDHLQLSAEVVEGSRYQESLGNTVFELENREAEAYTGLSPPVPSFNCEVRDEFEELDSVPLVKSSAGDTEFVHQNSQEIQRSSQDEMVSTKQQNNTSQERQTEHSPEDAACGPGHICSEQNTNDREKNHGSSPEQVVRPKVRKLISSSQVDQETGFNRHEAKQRSVQRWREALEVEESGSDDLLIKCEEYDGEHDCMFLDPPYSRVITQRETENNQMTSESGATAGRQEVDNTFWNGCGDYYQLYDKDEDSSECSDGEWSASLPHRFSGTEKDQSSSDESWETLPGKDENEPELQSDSSGPEEENQELSLQEGEQTSLEEGEIPWLQYNEVNESSSDEGNEPANEFAQPAFMLDGNNNLEDDSSVSEDLDVDWSLFDGFADGLGVAEAISYVDPQFLTYMALEERLAQAMETALAHLESLAVDVEVANPPASKESIDGLPETLVLEDHTAIGQEQCCPICCSEYIKDDIATELPCHHFFHKPCVSIWLQKSGTCPVCRRHFPPAVIEASAAPSSEPDPDAPPSNDSIAEAP

- C-term flag: 30
- N-term FLAG: 19
- C-term IgG: 3
- N-term IgG: 6
B7: SLC25A5 (protein)
chain: TDAAVSFAKDFLAGGVAAAISKTAVAPIERVKLLLQVQHASKQITADKQYKGIIDCVVRIPKEQGVLSFWRGNLANVIRYFPTQALNFAFKDKYKQIFLGGVDKRTQFWLYFAGNLASGGAAGATSLCFVYPLDFARTRLAADVGKAGAEREFRGLGDCLVKIYKSDGIKGLYQGFNVSVQGIIIYRAAYFGIYDTAKGMLPDPKNTHIVISWMIAQTVTAVAGLTSYPFDTVRRRMMMQSGRKGTDIMYTGTLDCWRKIARDEGGKAFFKGAWSNVLRGMGGAFVLVLYDEIKKYT

Continued, molecule first:

B1: CCT2 (protein)
chain: MDKILLSSGRDASLMVTNDGATILKNIGVDNPAAKVLVDMSRVQDDEVGDGTTSVTVLAAELLREAESLIAKKIHPQTIIAGWREATKAAREALLSSAVDHGSDEVKFRQDLMNIAGTTLSSKLLTHHKDHFTKLAVEAVLRLKGSGNLEAIHIIKKLGGSLADSYLDEGFLLDKKIGVNQPKRIENAKILIANTGMDTDKIKIFGSRVRVDSTAKVAEIEHAEKEKMKEKVERILKHGINCFINRQLIYNYPEQLFGAAGVMAIEHADFAGVERLALVTGGEIASTFDHPELVKLGSCKLIEEVMIGEDKLIHFSGVALGEACTIVLRGATQQILDEAERSLHDALCVLAQTVKDSRTVYGGGCSEMLMAHAVTQLANRTPGKEAVAMESYAKALRMLPTIIADNAGYDSADLVAQLRAAHSEGNTTAGLDMREGTIGDMAILGITESFQVKRQVLLSAAEAAEVILRVDNIIKAAPRKRVPDHHPC
- C-term flag: 2
- N-term FLAG: 0
- C-term IgG: 0
- N-term IgG: 0

B3: CSRP1 (protein)
chain: MPNWGGGKKCGVCQKTVYFAEEVQCEGNSFHKSCFLCMVCKKNLDSTTVAVHGEEIYCKSCYGKKYGPKGYGYGQGAGTLSTDKGESLGIKHEEAPGHRPTTNPNASKFAQKIGGSERCPRCSQAVYAAEKVIGAGKSWHKACFRCAKCGKGLESTTLADKDGEIYCKGCYAKNFGPKGFGFGQGAGALVHSE
- C-term flag: 3
- N-term FLAG: 0
- C-term IgG: 0
- N-term IgG: 0

B6: CTHRC1 (protein)
chain: MWPPGRSITVKLREKTVSRKLEMNGPSAFQGLICGKYNGMCLQGPAGVPGRDGSPGANGIPGTPGIPGRDGFKGEKGECLRESFEESWTPNYKQCSWSSLNYGIDLGKIAECTFTKMRSNSALRVLFSGSLRLKCRNACCQRWYFTFNGAECSGPLPIEAIIYLDQGSPEMNSTINIHRTSSVEGLCEGIGAGLVDVAIWVGTCSDYPKGDASTGWNSVSRIIIEELPK
- C-term flag: 2
- N-term FLAG: 0
- C-term IgG: 0
- N-term IgG: 0

B8: ARF4 (protein)
chain: GLTISSLFSRLFGKKQMRILMVGLDAAGKTTILYKLKLGEIVTTIPTIGFNVETVEYKNICFTVWDVGGQDRIRPLWKHYFQNTQGLIFVVDSNDRERIQEVADELQKMLLVDELRDAVLLLFANKQDLPNAMAISEMTDKLGLQSLRNRTWYVQATCATQGTGLYEGLDWLSNELSKR
- C-term flag: 4
- N-term FLAG: 4
- C-term IgG: 0
- N-term IgG: 0
